Publication PMC13585564

Assays:
[1] = target: SERK1 ectodomain (residues 24–213) (UniProt Q94AG2); experiment: ITC; conditions: SERK1 in syringe; HSL3 + peptide in cell; N = 1
[2] = target: CTNIP4(46–70)_(Cys–Cys); experiment: ITC; conditions: ligand in syringe, receptor in cell; N = 1
[3] = target: HSL3 ectodomain (wild type, residues 23–627) (Arabidopsis); experiment: ITC; CTNIP4 peptide (140–800 µM, syringe) injected into 15 µM HSL3 ectodomain or variant (cell); 25 °C; 20 mM sodium citrate, 150 mM NaCl, pH 5.0; N fitted to 1
[4] = target: SERK3; experiment: ITC; conditions: SERK3 in syringe; HSL3 + peptide in cell; N = 1
[5] = target: HSL3 ectodomain (wild type, residues 23–627); experiment: ITC; conditions: ligand in syringe, receptor in cell; N = 1

Chain of SERK1 ectodomain (residues 24–213) (Q94AG2 whole entry, looked up, the tested form may be a part): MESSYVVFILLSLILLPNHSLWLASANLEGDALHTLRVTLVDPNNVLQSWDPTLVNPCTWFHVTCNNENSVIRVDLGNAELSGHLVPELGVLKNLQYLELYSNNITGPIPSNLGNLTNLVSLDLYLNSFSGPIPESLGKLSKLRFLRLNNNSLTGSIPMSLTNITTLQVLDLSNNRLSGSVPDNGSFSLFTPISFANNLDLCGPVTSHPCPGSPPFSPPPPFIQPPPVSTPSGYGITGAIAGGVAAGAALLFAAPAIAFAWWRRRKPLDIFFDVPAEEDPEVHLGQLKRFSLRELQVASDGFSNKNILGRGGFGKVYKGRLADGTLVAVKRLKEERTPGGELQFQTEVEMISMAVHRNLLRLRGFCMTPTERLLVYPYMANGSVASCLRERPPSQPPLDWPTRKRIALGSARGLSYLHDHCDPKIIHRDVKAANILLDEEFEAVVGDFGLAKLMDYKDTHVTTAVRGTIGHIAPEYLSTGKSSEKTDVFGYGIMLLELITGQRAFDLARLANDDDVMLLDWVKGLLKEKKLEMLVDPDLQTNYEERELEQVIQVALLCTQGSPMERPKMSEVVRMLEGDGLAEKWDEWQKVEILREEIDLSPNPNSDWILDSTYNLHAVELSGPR

Substance: HSL3–CTNIP4 complex (HSL3 ectodomain pre-incubated with CTNIP4(46–70)_(Cys–Cys)) C58A; C68A
- other: ΔH [1]: -7.1 kcal/mol

Substance: HSL3 ectodomain (wild type, residues 23–627) R358A
- Kd [2]: 112 nM
- other: ΔH [2]: -25.9 kcal/mol

Substance: HSL3 ectodomain (wild type, residues 23–627) D241A
- other: ΔH [2]: -17.6 kcal/mol

Substance: HSL3 ectodomain (wild type, residues 23–627) D288A
- other: ΔH [2]: -3.4 kcal/mol

Substance: CTNIP4^C58A.C68A(46–70)_(linear) (peptide)
- fold impairment of binding against CTNIP4(46–70) (Cys–Cys) [3]: 200 fold

Substance: HSL3–CTNIP4 complex (HSL3 ectodomain pre-incubated with CTNIP4(46–70)_(Cys–Cys)) N60A
- other: ΔH [4]: 3.3 kcal/mol

Substance: HSL3 ectodomain (wild type, residues 23–627) E171A
- other: ΔH [2]: -21.2 kcal/mol

Substance: HSL3–CTNIP4 complex (HSL3 ectodomain pre-incubated with CTNIP4(46–70)_(Cys–Cys)) N60F
- other: ΔH [4]: 13.2 kcal/mol

Substance: HSL3 + CTNIP4(46–63) C58A
- other: ΔH [1]: -3.7 kcal/mol

Substance: CTNIP4(46–70)_(Cys–Cys) S53A
- Kd [5]: 3440 nM
- other: ΔH [5]: -17.5 kcal/mol
